Experimental data from the supplement of paper PMC7877785.
± gives the uncertainty stated by the source.

Assay: self-splicing fitness, log relative to wild type (ln ratio); higher = more splicing; Tetrahymena group I intron in knt gene, E. coli kanamycin selection, DiMSum; sequences stand for … in CUCUCU…GGAGGGAAAAGUUAUCAGGCAUGCACCUGGUAGCUAGUCUUUAAACCAAUAGAUUGCAUCGGUUUAAAAGGCAAGACCGUCAAAUUGCGGGAAAGGGGUCAACAGCCGUUCAGUACCAAGUCUCAGGGGAAACUUUGAGAUGGCCUUGCAAAGGGUAUGGUAAUAAGCUGACGGACAUGGUCCUAACCACGCAGCCAAGUCCUAAGUCAACAGAUCUUCUGUUGAUAUGGAUGCAGUUCACAGACUAAAUGUCGGUCGGGGAAGAUGUAUUCUUCUCAUAAGAUAUAGUCGGACCUCUCCUUAAUGGGAGCUAGCGGAUGAAGUGAUGCAACACUGGAGCCGCUGGGAACUAAUUUGUAUGCGAAAGUAUAUUGAUUAGUUUUGGAGUACUCGUGGUCG
Outline: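 Fitness was computed with DiMSum as the error-weighted combination of replicate fold changes, kanamycin versus none, each normalised to wild type. The library randomised all eight intron nucleotides of the P1ex region, with the intron placed in the knt kanamycin-resistance gene on pET-22b(+) in E. coli BL21(DE3). Six replicate transformations were grown overnight at 37°C or 30°C on LB agar with or without 25 μg/mL kanamycin, plus 100 μg/mL carbenicillin, 50 μM IPTG and 0.2% rhamnose. Pooled colonies were amplicon-sequenced on an Illumina HiSeq 2500.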

| Sequence | self-splicing fitness (ln) (30 °C) | self-splicing fitness (ln) (37 °C) |
| --- | --- | --- |
| AAGUAGCAAUAUUACGGACA | -1.7 ± 0.12 | -0.343 ± 0.12 |
| AAGUAGCAAUAUUACGGAGA | -3.93 ± 0.37 | -2.34 ± 0.39 |
| AAGUAGCAAUAUUACGGCCU | -0.0359 ± 0.073 | -0.35 ± 0.091 |
| AAGUAGCAAUAUUACGGGCC | – | -1.88 ± 0.37 |
| AAGUAGCAAUAUUACGGUAU | -2.25 ± 0.097 | -1.88 ± 0.092 |
| AAGUAGCAAUAUUACGGUUU | -0.353 ± 0.064 | -0.458 ± 0.098 |
| AAGUAGCAAUAUUACGUAUA | -1.96 ± 0.13 | -2.15 ± 0.14 |
| AAGUAGCAAUAUUACGUUGA | -3.64 ± 0.32 | -2.29 ± 0.22 |
| AAGUAGCAAUAUUACGUUUU | -2.71 ± 0.13 | -2.17 ± 0.17 |
| AAUAAGCAAUAUUACGACGA | -0.785 ± 0.11 | -0.362 ± 0.14 |
| AAUAAGCAAUAUUACGAGGA | -3.05 ± 0.43 | -1.94 ± 0.33 |
| AAUAAGCAAUAUUACGAGGG | -3.7 ± 0.37 | -2.9 ± 0.34 |
| AAUAAGCAAUAUUACGCAGC | -3.5 ± 0.26 | -2.1 ± 0.23 |
| AAUAAGCAAUAUUACGCAUU | -2.97 ± 0.21 | -2.56 ± 0.28 |
| AAUAAGCAAUAUUACGCCAA | -2.17 ± 0.21 | -1.46 ± 0.18 |
| AAUAAGCAAUAUUACGCCAG | -1.88 ± 0.18 | -0.98 ± 0.25 |
| AAUAAGCAAUAUUACGCCGC | -2.65 ± 0.46 | -1.49 ± 0.28 |
| AAUAAGCAAUAUUACGCCUG | -0.724 ± 0.13 | 0.286 ± 0.17 |
| AAUAAGCAAUAUUACGCGGA | -2.57 ± 0.22 | -1.33 ± 0.19 |
| AAUAAGCAAUAUUACGCGUG | -0.604 ± 0.071 | -0.455 ± 0.089 |
| AAUAAGCAAUAUUACGGACC | -1.54 ± 0.12 | -0.72 ± 0.15 |
| AAUAAGCAAUAUUACGGCAA | -0.158 ± 0.09 | -0.3 ± 0.12 |
| AAUAAGCAAUAUUACGUAAA | -1.89 ± 0.1 | -1.22 ± 0.14 |
| AAUAAGCAAUAUUACGUCUU | 0.0603 ± 0.06 | -0.0919 ± 0.075 |

| Sequence | self-splicing fitness (ln) (30 °C) | self-splicing fitness (ln) (37 °C) |
| --- | --- | --- |
| AAUAAGCAAUAUUACGUGAU | -2.97 ± 0.14 | -1.23 ± 0.12 |
| AAUAAGCAAUAUUACGUGGA | -3.22 ± 0.22 | -2.42 ± 0.19 |
| AAUAAGCAAUAUUACGUGUA | -2.16 ± 0.12 | -1.12 ± 0.11 |
| AAUAAGCAAUAUUACGUGUC | -3 ± 0.14 | -0.777 ± 0.14 |
| AAUCAGCAAUAUUACGAAUA | 0.443 ± 0.16 | -0.266 ± 0.12 |
| AAUCAGCAAUAUUACGAAUC | -0.973 ± 0.1 | 0.372 ± 0.12 |
| AAUCAGCAAUAUUACGACUC | -0.0136 ± 0.086 | 0.129 ± 0.11 |
| AAUCAGCAAUAUUACGAGUA | -1.43 ± 0.081 | 0.415 ± 0.083 |
| AAUCAGCAAUAUUACGAUAG | -1.3 ± 0.1 | -0.239 ± 0.1 |
| AAUCAGCAAUAUUACGCACA | -0.245 ± 0.063 | 0.0601 ± 0.085 |
| AAUCAGCAAUAUUACGCGAU | -2.8 ± 0.14 | -2.07 ± 0.14 |
| AAUCAGCAAUAUUACGCUGG | -2.63 ± 0.099 | -2.87 ± 0.087 |
| AAUCAGCAAUAUUACGCUGU | -3.28 ± 0.14 | -1.59 ± 0.11 |
| AAUCAGCAAUAUUACGGAGC | -2.64 ± 0.17 | -0.807 ± 0.16 |
| AAUCAGCAAUAUUACGGCAC | -0.508 ± 0.086 | -0.24 ± 0.12 |
| AAUCAGCAAUAUUACGGCUU | 0.103 ± 0.067 | 0.17 ± 0.077 |
| AAUCAGCAAUAUUACGGGCG | -0.742 ± 0.059 | -0.382 ± 0.075 |
| AAUCAGCAAUAUUACGGUGU | 0.0362 ± 0.059 | 0.393 ± 0.072 |
| AAUCAGCAAUAUUACGUAAC | -1.33 ± 0.11 | -0.141 ± 0.11 |
| AAUCAGCAAUAUUACGUCGG | -1.88 ± 0.1 | -1.02 ± 0.14 |
| AAUCAGCAAUAUUACGUGCA | -0.181 ± 0.067 | 0.221 ± 0.084 |
| AAUCAGCAAUAUUACGUGGA | -0.585 ± 0.072 | -0.433 ± 0.076 |
| AAUCAGCAAUAUUACGUGUA | -0.538 ± 0.058 | 0.135 ± 0.068 |
| AAUCAGCAAUAUUACGUUAA | -0.816 ± 0.072 | -0.587 ± 0.077 |

| Sequence | self-splicing fitness (ln) (30 °C) | self-splicing fitness (ln) (37 °C) |
| --- | --- | --- |
| AAUGAGCAAUAUUACGAAGG | -2.56 ± 0.43 | -3.54 ± 0.43 |
| AAUGAGCAAUAUUACGAAGU | – | -2.16 ± 0.33 |
| AAUGAGCAAUAUUACGAGUA | -3.91 ± 0.25 | -2.54 ± 0.27 |
| AAUGAGCAAUAUUACGCAAA | – | -2.46 ± 0.48 |
| AAUGAGCAAUAUUACGCACA | -2.31 ± 0.29 | -1.38 ± 0.2 |
| AAUGAGCAAUAUUACGCCAC | -1.83 ± 0.22 | -2.41 ± 0.49 |
| AAUGAGCAAUAUUACGCCAU | -2.37 ± 0.39 | -1.9 ± 0.48 |
| AAUGAGCAAUAUUACGCCUA | -1.13 ± 0.21 | -1.62 ± 0.25 |
| AAUGAGCAAUAUUACGCCUU | -2.11 ± 0.13 | -1.43 ± 0.15 |
| AAUGAGCAAUAUUACGCGAC | – | -1.67 ± 0.48 |
| AAUGAGCAAUAUUACGCUAG | – | -1.93 ± 0.36 |
| AAUGAGCAAUAUUACGUAAC | -3.92 ± 0.27 | -2.45 ± 0.21 |
| AAUGAGCAAUAUUACGUGAU | -3.8 ± 0.29 | -0.708 ± 0.2 |
| AAUGAGCAAUAUUACGUUCA | -1.46 ± 0.12 | -0.27 ± 0.13 |
| AAUGAGCAAUAUUACGUUGG | -3.18 ± 0.23 | -3.55 ± 0.27 |
| AAUGAGCAAUAUUACGUUUC | -4.31 ± 0.24 | -2.98 ± 0.25 |
| AAUUAGCAAUAUUACGAAUC | -2.34 ± 0.16 | -0.829 ± 0.16 |
| AAUUAGCAAUAUUACGAAUG | -1.55 ± 0.12 | 0.187 ± 0.14 |
| AAUUAGCAAUAUUACGACCA | -0.406 ± 0.1 | 0.48 ± 0.12 |
| AAUUAGCAAUAUUACGACUC | -0.246 ± 0.11 | 0.0749 ± 0.16 |
| AAUUAGCAAUAUUACGAGUU | -1.48 ± 0.12 | -1.28 ± 0.15 |
| AAUUAGCAAUAUUACGAUAC | -1.24 ± 0.36 | -0.477 ± 0.21 |
| AAUUAGCAAUAUUACGAUGA | -0.632 ± 0.094 | -0.429 ± 0.11 |
| AAUUAGCAAUAUUACGCACA | 0.0525 ± 0.13 | -0.475 ± 0.15 |

| Sequence | self-splicing fitness (ln) (30 °C) | self-splicing fitness (ln) (37 °C) |
| --- | --- | --- |
| AAUUAGCAAUAUUACGCCAA | -2.13 ± 0.18 | -1.25 ± 0.2 |
| AAUUAGCAAUAUUACGCCCG | -1.04 ± 0.18 | 0.376 ± 0.28 |
| AAUUAGCAAUAUUACGCCCU | 0.0273 ± 0.1 | -0.313 ± 0.13 |
| AAUUAGCAAUAUUACGCUCC | -1.09 ± 0.36 | -0.0599 ± 0.35 |
| AAUUAGCAAUAUUACGGCUC | -0.532 ± 0.14 | 0.0268 ± 0.16 |
| AAUUAGCAAUAUUACGGUCG | -0.573 ± 0.099 | -0.259 ± 0.12 |
| AAUUAGCAAUAUUACGGUGA | -1.7 ± 0.084 | -0.534 ± 0.099 |
| AAUUAGCAAUAUUACGGUUA | -0.622 ± 0.11 | -0.183 ± 0.099 |
| AAUUAGCAAUAUUACGGUUC | -3.38 ± 0.22 | -2.65 ± 0.26 |
| AAUUAGCAAUAUUACGUAAA | -1.3 ± 0.11 | -0.736 ± 0.18 |
| AAUUAGCAAUAUUACGUAUU | -2.32 ± 0.18 | -0.913 ± 0.14 |
| AAUUAGCAAUAUUACGUGUA | -2.21 ± 0.15 | -1.41 ± 0.12 |
| AAUUAGCAAUAUUACGUUAC | -3.18 ± 0.15 | -1.74 ± 0.17 |
| ACAAAGCAAUAUUACGACCU | 0.0994 ± 0.076 | 0.311 ± 0.091 |
| ACAAAGCAAUAUUACGAGGA | -3.04 ± 0.2 | -2.07 ± 0.19 |
| ACAAAGCAAUAUUACGAGUU | -3.3 ± 0.099 | -1.68 ± 0.096 |
| ACAAAGCAAUAUUACGCAAG | -1.45 ± 0.079 | 0.00248 ± 0.087 |
| ACAAAGCAAUAUUACGCACC | -0.449 ± 0.19 | 0.128 ± 0.2 |
| ACAAAGCAAUAUUACGCACU | -0.0924 ± 0.069 | 0.264 ± 0.089 |
| ACAAAGCAAUAUUACGCAUU | -3.06 ± 0.095 | -1.56 ± 0.082 |
| ACAAAGCAAUAUUACGCCCC | -0.67 ± 0.27 | -0.241 ± 0.26 |
| ACAAAGCAAUAUUACGCGGU | -3.37 ± 0.13 | -2.68 ± 0.14 |
| ACAAAGCAAUAUUACGCUGU | -2.48 ± 0.14 | -3.01 ± 0.27 |
| ACAAAGCAAUAUUACGGAGA | -3.37 ± 0.19 | -2.39 ± 0.19 |
